6 molecules from patent US20250042997A1 (PHYLAXIS BIOSCIENCE, published 2025) can be followed below.

Experiment [1] addresses T1, human Siglec-8 (full-length, on transfected CHO or 293 cells, or native on human eosinophils) (human, UniProt Q9NYZ4 17-499). Kind of experiment: flow cytometry on 293 cells transiently transfected with full-length human Siglec-8; A647 anti-human Fc-gamma secondary; median fluorescence, nonlinear fit; table under the graph (Kd column without unit, concentration axis nM Ab). On the procedure: (§1) The binding of the lmG2 and humanized versions (further including Siglec8 hzG2v14), formatted as monomeric VHH-hIgG1 fusions proteins using a non-dimerizing human IgG1 Fe variant region lacking a hinge Fe NNT, was assessed by flow cytometry using 293 cells that had been transiently transfected with full-length human Siglec-8 and detected with an anti-human AF647 secondary antibody. Binding specificity was assessed using untransfected 293 cells as a control. For the binding assays, Siglec-8 293 cells or untransformed 293 cells were seeded in a 96 well U-bottom plate with 50 k cells/well in FACS buffer and incubated at 4° C. with a titration of anti-Siglec8-VHH-NNT for 30 minutes. After washing, the plates were incubated with an A647-conjugated anti-human Fcγ specific secondary antibody diluted 1:10,000 in FACS buffer for 20 minutes at 4° C. The plates were washed, and binding was determined by flow cytometry quantitating anti-human A647 median fluorescent intensity. The maximum specific binding (Bmax) and affinity (Kd) for was determined from the flow cytometry binding data using a nonlinear fit model.
In general terms: A flow cytometer gives signals particle by particle.

Experiment [2] deals with T1, human Siglec-8 (full-length, on …). The experiment can be described thus: flow cytometry on 293 cells transiently transfected with full-length human Siglec-8; A647 anti-human Fc-gamma secondary; median fluorescence, nonlinear fit; table under the graph. On the procedure: as §1
Experiment [3] has the same target. The experiment is described as above. On the procedure:
as §1
The source holds these as a separate data set.

The target is the same in experiment [4]. The description is as above. On the procedure:
as §1
The source holds these as a separate data set.

The target is the same in experiment [5]. The experiment can be described thus: flow cytometry on 293 cells transiently transfected with full-length human Siglec-8; A647 anti-human Fc-gamma secondary; median fluorescence, nonlinear fit; table under the graph (Kd column without unit, concentration axis nM Ab). On the procedure:
as §1
This is another data set of the same source.

Experiment [6] shares this target. The experiment is described as above. On the procedure:
as §1
The source holds these as a separate data set.

For experiment [7] the target is unchanged. Kind of experiment: flow cytometry on human eosinophils (CD16- CCR3+) from whole blood; anti-human AF647 secondary; MFI. The text has this:
To determine if increasing the valency of Siglec-8 antibodies could enhance agonist activity, the parental llama B12, D1 and E2 VHH sequences were used to generate tetravalent (Tet-B12 (cx8467; SEQ ID NO:50 linked to an Fe), Tet-D1 (cx8469; SEQ ID NO:56 linked to an Fe), and Tet-E2 (cx8463; SEQ ID NO:62 linked to an Fc)) and hexavalent (Hex-B12 (cx8466; SEQ ID NO:51 linked to an Fe), Hex-D1 (cx8523; SEQ ID NO:57 linked to an Fe), and Hex-E2 (cx8522; SEQ ID NO:165 linked to an Fc)), Siglec8-VHH-Fc antibodies linked to a reduced effector function xELL human Fc region via linker 2. The bivalent (Bi-B12 (cx8982), Bi-D1 (cx8983) and Bi-E2 (cx8984)), tetravalent, and hexavalent Siglec8-VHH-Fc antibodies were assessed by flow cytometry for binding to eosinophils (CD16⁻ CCR3⁺). Cells were isolated from whole blood by centrifugation, washed twice with 2% FBS PBS, and resuspended in 1×RBC lysis buffer for 10 minutes at room temperature (RT), washed once in 2% FBS PBS and treated with a second RBC lysis step and washed twice with 2% FBS. Cells were seeded at 200 k/well and resuspended in Human FC block for 10 minutes at RT. Cells were spun down and then resuspended in titrated test articles starting at 200 nM 1:4 and incubated for 30 minutes at 4° C. before being washed twice and resuspended in secondary mixture (2*; anti-CCR3 FITC, anti-human AF647, PI, anti-CD16 BV605) and incubated for 30 minutes at 4° C., washed twice, and bound antibodies were detected via flow cytometry (Novocyte).
As shown in FIG. 2A-2C, bivalent, tetravalent, and hexavalent Siglec8-VHH-Fc antibodies B12 (FIG. 2A), D1 (FIG. 2B) and E2 (FIG. 2C) bound to eosinophils. The calculated affinity was similar between the bivalent, tetravalent, and hexavalent hzSiglec8-VHH-Fc antibodies. The observed Bmax was reduced with increasing valency as anticipated, due the fact that the Fc portion of the antibody was detected in this assay and the ratio of Fc regions to anti-Siglec-8 binding domains is inverse to valency. No binding was observed on other granulocyte populations (CD16⁺ CCR3⁻).

For experiment [8] the target is unchanged. Kind of experiment: flow cytometry on CHO cells transiently transfected with full-length human Siglec-8; A647 anti-human Fc-gamma secondary; Mean RL1-H. On the procedure:
(§2) Binding of the anti-human Siglec-8 VHHs, B12, D1, E2, and G2, as a bivalent VHH-hIgG1-xELL-Fc (VHH of SEQ ID NO: 49, 55, 61, and 1, respectively linked to an Fe xELL via linker 2, these constructs are also designated cx8982, cx8983, cx8984, and cx10382, respectively) was determined by flow cytometry using CHO cells that had been transiently transfected with full-length human Siglec-8. Binding specificity was assessed using untransfected (UT) CHO cells as a control. For the binding assays, 50,000 Siglec-8 CHOs or UT CHOs were seeded in a 96-well plate and a titration of anti-Siglec8-VHH-xELL was added in FACS Buffer (PBS 1% BSA, 0.1% NaN3 pH 7.4) incubating for 30 minutes at 4° C. After washing, the plates were incubated with an A647-conjugated anti-human Fcγ specific secondary antibody (Jackson ImmunoResearch) diluted 1:2000 in FACS buffer for 30 minutes at 4° C. The plates were washed, and binding was determined by flow cytometry quantitating anti-human A647 mean fluorescent intensity using an Intellicyt iQue Plus.
(§3) The binding was specific to Siglec-8 as there was no detectable binding to untransfected CHO cells for any of the tested constructs.

Experiment [9] has the same target. Kind of experiment: flow cytometry, CHO cells transiently transfected with full-length human Siglec-8 (apparent affinity). On the procedure:
as §2, §3

Changes are numbered by the printed parent chain. Read-outs that look alike come from different tables or passages of the source.

T1 sequence (Q9NYZ4 17-499): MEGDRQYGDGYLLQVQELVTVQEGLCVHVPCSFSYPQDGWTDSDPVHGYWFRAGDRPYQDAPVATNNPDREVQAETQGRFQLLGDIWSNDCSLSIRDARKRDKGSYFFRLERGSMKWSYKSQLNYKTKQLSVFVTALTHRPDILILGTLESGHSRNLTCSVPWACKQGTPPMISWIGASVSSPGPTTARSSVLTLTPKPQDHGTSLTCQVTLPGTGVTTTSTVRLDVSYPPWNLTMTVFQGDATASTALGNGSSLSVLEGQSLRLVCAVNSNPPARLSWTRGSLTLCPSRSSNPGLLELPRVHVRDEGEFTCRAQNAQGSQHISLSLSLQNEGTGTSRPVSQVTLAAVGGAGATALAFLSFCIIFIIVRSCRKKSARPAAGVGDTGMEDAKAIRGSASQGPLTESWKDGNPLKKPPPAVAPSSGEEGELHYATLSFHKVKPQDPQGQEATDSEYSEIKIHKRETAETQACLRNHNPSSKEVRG

B1: llama anti-Siglec8-G2 VHH (lmG2), monomeric VHH-hIgG1 fusion (Fc NNT) (Fc fusion)
chain: QVTLKESGGGLVRTGGSLRLSCAASGSISIFSMYVVAWYRQAPGKQREWVAFIQRGGTANYADSAKGRFTISRDNAKNTVYLQMASLKPDDTAVYYCNYINSDNEIGGPWGQGTQVTVKP
notes: Monomeric format; also called parental clone; not shown: non-dimerizing human IgG1 Fc variant lacking a hinge (Fc NNT)
With B1, the Kd in [1] stood at 63.7 pM; in experiment [5] it was 124 pM; in [6] it was 114 pM. Besides, the Bmax in experiment [2] is 1.15e+06 Median (anti-human A647); in experiment [3] it was 1.28e+06 Median (anti-human A647); in experiment [4], 1.36e+06 Median (anti-human A647).

B2: Siglec8 hzG2v32, monomeric VHH-hIgG1 fusion (Fc NNT) (Fc fusion)
chain: B1 chain with Q1E, T3Q, K5L, L11E, R13Q, D63E, A85S, K88R, D90E, Q115L
notes: Monomeric format; not shown: non-dimerizing human IgG1 Fc variant lacking a hinge (Fc NNT)
Regarding B2, the Kd in experiment [1] amounted to 64.3 pM. In addition, the Bmax in [2] is 1.45e+06 Median (anti-human A647).

B3: Siglec8 hzG2v33, monomeric VHH-hIgG1 fusion (Fc NNT) (Fc fusion)
chain: B1 chain with Q1E, T3Q, K5L, L11E, R13Q, D63E, A85S, K88R, P89A, Q115L
notes: as for B2
For B3, in [1], the Kd was found to be 97.9 pM. In addition, the Bmax in experiment [2] was 1.39e+06 Median (anti-human A647).

B4: anti-Siglec8-E2-xELL, bivalent VHH-hIgG1-xELL-Fc (Fc fusion)
chain: QVQLVESGGGLVQPGGSLRLSCATSGIIFTSNVINWYRQAPGKQREFVAFITSITSGQSTMYADAVKGRFTVSRDNDKNIGYLQMTSLQPEDTARYVCNVGAYWGQGTQVTVKPGGGGDKTHTCPPCPAPGGPSVFLFPPKPKDTLMISRTPEVTCVVVDVSHEDPEVKFNWYVDGVEVHNAKTKPREEQYNSTYRVVSVLTVLHQDWLNGKEYKCKVSNKALPAPIEKTISKAKGQPREPQVYTLPPSRDELTKNQVSLTCLVKGFYPSDIAVEWESNGQPENNYKTTPPVLDSDGSFFLYSKLTVDKSRWQQGNVFSCSVMHEALHNHYTQKSLSLSPGK
notes: Homodimer through the Fc; also called cx8984; Bi-E2
For B4, the EC50 (read off the curve) (usually the concentration that produces a half-maximal response) in experiment [7] was about 100 pM; in experiment [8], about 400 pM. Moreover, the Kd in experiment [9] was 331 pM.

B5: anti-Siglec8-D1-xELL, bivalent VHH-hIgG1-xELL-Fc (Fc fusion)
chain: QVQLVESGGGLVQPGGSLRLSCAASGSIASIHGMGWYRQAPGKERELVAAIAGEGSTYYADSVKGRFTISRDFAKNTLYLQMNNLKAEDTAMYYCANNDERDDYWGQGTQVTVKPGGGGDKTHTCPPCPAPGGPSVFLFPPKPKDTLMISRTPEVTCVVVDVSHEDPEVKFNWYVDGVEVHNAKTKPREEQYNSTYRVVSVLTVLHQDWLNGKEYKCKVSNKALPAPIEKTISKAKGQPREPQVYTLPPSRDELTKNQVSLTCLVKGFYPSDIAVEWESNGQPENNYKTTPPVLDSDGSFFLYSKLTVDKSRWQQGNVFSCSVMHEALHNHYTQKSLSLSPGK
notes: Homodimer through the Fc; also called cx8983; Bi-D1
B5: the results for the “EC50 (read off the curve)” value in experiment [7] and in experiment [8] were about 60 pM and about 500 pM, respectively. In addition, in experiment [9], the Kd worked out at 427 pM.

B6: anti-Siglec8-B12-xELL, bivalent VHH-hIgG1-xELL-Fc (Fc fusion)
chain: QVQVVESGGGLVQPGGSLRLSCAASGSTSLLNAMAWYRQAPGKERELVAAISSGGGTYYADSVKGRFTISTNNAKNTLYLQMNSLKPEDTAMYYCAPGPNYSDYEEINWGQGTQVTVKPGGGGDKTHTCPPCPAPGGPSVFLFPPKPKDTLMISRTPEVTCVVVDVSHEDPEVKFNWYVDGVEVHNAKTKPREEQYNSTYRVVSVLTVLHQDWLNGKEYKCKVSNKALPAPIEKTISKAKGQPREPQVYTLPPSRDELTKNQVSLTCLVKGFYPSDIAVEWESNGQPENNYKTTPPVLDSDGSFFLYSKLTVDKSRWQQGNVFSCSVMHEALHNHYTQKSLSLSPGK
notes: Homodimer through the Fc; also called cx8982; Bi-B12
Turning to B6, the “EC50 (read off the curve)” value in experiment [7] was about 100 pM; in experiment [8] it was about 400 pM. Also, the Kd in experiment [9] came out at 367 pM.
